# From the Human Domainome abundance scans (Beltran et al. 2025)
# ± gives the uncertainty stated by the source.
# B1: POU domain, class 2, transcription factor 1, residues 285 to 354; numbered along this chain, P14859 (parent)
# chain: LEELEQFAKTFKQRRIKLGFTQGDVGLAMGKLYGNDFSQTTISRFEALNLSFKNMCKLKPLLEKWLNDAE
# Variants of: B1
# Assay: abundance fitness (aPCA) (normalised: wild type 0, dead -1); higher = more abundant; growth selection in yeast, the domain comes from the species named
# Settings: Homo sapiens
row,Variant,abundance fitness
1,LEELEQFAKTFKQRRIKLGFTQGLVGLAMGKLYGNDFSQTTISRFEALNLSFKNMCKLKPLLEKWLNDAE,-0.192 ± 0.02
2,LEELEQFAKTFKQRRIKLGFTQGMVGLAMGKLYGNDFSQTTISRFEALNLSFKNMCKLKPLLEKWLNDAE,-0.11 ± 0.036
3,LEELEQFAKTFKQRRIKLGFTQGPVGLAMGKLYGNDFSQTTISRFEALNLSFKNMCKLKPLLEKWLNDAE,-0.846 ± 0.033
4,LEELEQFAKTFKQRRIKLGFTQGRVGLAMGKLYGNDFSQTTISRFEALNLSFKNMCKLKPLLEKWLNDAE,-0.151 ± 0.026
5,LEELEQFAKTFKQRRIKLGFTQGSVGLAMGKLYGNDFSQTTISRFEALNLSFKNMCKLKPLLEKWLNDAE,-0.097 ± 0.023
6,LEELEQFAKTFKQRRIKLGFTQGTVGLAMGKLYGNDFSQTTISRFEALNLSFKNMCKLKPLLEKWLNDAE,-0.089 ± 0.027
7,LEELEQFAKTFKQRRIKLGFTQGVVGLAMGKLYGNDFSQTTISRFEALNLSFKNMCKLKPLLEKWLNDAE,-0.218 ± 0.027
8,LEELEQFAKTFKQRRIKLGFTQGWVGLAMGKLYGNDFSQTTISRFEALNLSFKNMCKLKPLLEKWLNDAE,-0.238 ± 0.035
9,LEELEQFAKTFKQRRIKLGFTQGYVGLAMGKLYGNDFSQTTISRFEALNLSFKNMCKLKPLLEKWLNDAE,-0.164 ± 0.045
10,LEELEQFAKTFKQRRIKLGFTQGDAGLAMGKLYGNDFSQTTISRFEALNLSFKNMCKLKPLLEKWLNDAE,-0.049 ± 0.064
11,LEELEQFAKTFKQRRIKLGFTQGDDGLAMGKLYGNDFSQTTISRFEALNLSFKNMCKLKPLLEKWLNDAE,-0.504 ± 0.25
12,LEELEQFAKTFKQRRIKLGFTQGDFGLAMGKLYGNDFSQTTISRFEALNLSFKNMCKLKPLLEKWLNDAE,-0.372 ± 0.17
13,LEELEQFAKTFKQRRIKLGFTQGDGGLAMGKLYGNDFSQTTISRFEALNLSFKNMCKLKPLLEKWLNDAE,-0.711 ± 0.12
14,LEELEQFAKTFKQRRIKLGFTQGDIGLAMGKLYGNDFSQTTISRFEALNLSFKNMCKLKPLLEKWLNDAE,-0.094 ± 0.086
15,LEELEQFAKTFKQRRIKLGFTQGDLGLAMGKLYGNDFSQTTISRFEALNLSFKNMCKLKPLLEKWLNDAE,-0.349 ± 0.26
16,LEELEQFAKTFKQRRIKLGFTQGDPGLAMGKLYGNDFSQTTISRFEALNLSFKNMCKLKPLLEKWLNDAE,-0.687 ± 0.09
17,LEELEQFAKTFKQRRIKLGFTQGDSGLAMGKLYGNDFSQTTISRFEALNLSFKNMCKLKPLLEKWLNDAE,-0.843 ± 0.1
18,LEELEQFAKTFKQRRIKLGFTQGDWGLAMGKLYGNDFSQTTISRFEALNLSFKNMCKLKPLLEKWLNDAE,-0.645 ± 0.11
19,LEELEQFAKTFKQRRIKLGFTQGDVALAMGKLYGNDFSQTTISRFEALNLSFKNMCKLKPLLEKWLNDAE,-0.027 ± 0.027
20,LEELEQFAKTFKQRRIKLGFTQGDVCLAMGKLYGNDFSQTTISRFEALNLSFKNMCKLKPLLEKWLNDAE,-0.043 ± 0.034
21,LEELEQFAKTFKQRRIKLGFTQGDVDLAMGKLYGNDFSQTTISRFEALNLSFKNMCKLKPLLEKWLNDAE,-0.052 ± 0.043
22,LEELEQFAKTFKQRRIKLGFTQGDVELAMGKLYGNDFSQTTISRFEALNLSFKNMCKLKPLLEKWLNDAE,-0.025 ± 0.032
23,LEELEQFAKTFKQRRIKLGFTQGDVFLAMGKLYGNDFSQTTISRFEALNLSFKNMCKLKPLLEKWLNDAE,-0.082 ± 0.032
24,LEELEQFAKTFKQRRIKLGFTQGDVHLAMGKLYGNDFSQTTISRFEALNLSFKNMCKLKPLLEKWLNDAE,-0.098 ± 0.051
25,LEELEQFAKTFKQRRIKLGFTQGDVILAMGKLYGNDFSQTTISRFEALNLSFKNMCKLKPLLEKWLNDAE,-0.076 ± 0.044
26,LEELEQFAKTFKQRRIKLGFTQGDVKLAMGKLYGNDFSQTTISRFEALNLSFKNMCKLKPLLEKWLNDAE,-0.095 ± 0.036

row,Variant,abundance fitness
1,LEELEQFAKTFKQRRIKLGFTQGDVLLAMGKLYGNDFSQTTISRFEALNLSFKNMCKLKPLLEKWLNDAE,-0.054 ± 0.022
2,LEELEQFAKTFKQRRIKLGFTQGDVMLAMGKLYGNDFSQTTISRFEALNLSFKNMCKLKPLLEKWLNDAE,-0.04 ± 0.027
3,LEELEQFAKTFKQRRIKLGFTQGDVNLAMGKLYGNDFSQTTISRFEALNLSFKNMCKLKPLLEKWLNDAE,-0.033 ± 0.037
4,LEELEQFAKTFKQRRIKLGFTQGDVPLAMGKLYGNDFSQTTISRFEALNLSFKNMCKLKPLLEKWLNDAE,-0.276 ± 0.035
5,LEELEQFAKTFKQRRIKLGFTQGDVQLAMGKLYGNDFSQTTISRFEALNLSFKNMCKLKPLLEKWLNDAE,-0.014 ± 0.046
6,LEELEQFAKTFKQRRIKLGFTQGDVRLAMGKLYGNDFSQTTISRFEALNLSFKNMCKLKPLLEKWLNDAE,-0.087 ± 0.03
7,LEELEQFAKTFKQRRIKLGFTQGDVSLAMGKLYGNDFSQTTISRFEALNLSFKNMCKLKPLLEKWLNDAE,0.025 ± 0.023
8,LEELEQFAKTFKQRRIKLGFTQGDVTLAMGKLYGNDFSQTTISRFEALNLSFKNMCKLKPLLEKWLNDAE,-0.038 ± 0.031
9,LEELEQFAKTFKQRRIKLGFTQGDVVLAMGKLYGNDFSQTTISRFEALNLSFKNMCKLKPLLEKWLNDAE,-0.005 ± 0.023
10,LEELEQFAKTFKQRRIKLGFTQGDVWLAMGKLYGNDFSQTTISRFEALNLSFKNMCKLKPLLEKWLNDAE,-0.051 ± 0.025
11,LEELEQFAKTFKQRRIKLGFTQGDVYLAMGKLYGNDFSQTTISRFEALNLSFKNMCKLKPLLEKWLNDAE,-0.043 ± 0.041
12,LEELEQFAKTFKQRRIKLGFTQGDVGAAMGKLYGNDFSQTTISRFEALNLSFKNMCKLKPLLEKWLNDAE,0.073 ± 0.056
13,LEELEQFAKTFKQRRIKLGFTQGDVGCAMGKLYGNDFSQTTISRFEALNLSFKNMCKLKPLLEKWLNDAE,0.039 ± 0.044
14,LEELEQFAKTFKQRRIKLGFTQGDVGDAMGKLYGNDFSQTTISRFEALNLSFKNMCKLKPLLEKWLNDAE,-0.136 ± 0.07
15,LEELEQFAKTFKQRRIKLGFTQGDVGEAMGKLYGNDFSQTTISRFEALNLSFKNMCKLKPLLEKWLNDAE,-0.002 ± 0.066
16,LEELEQFAKTFKQRRIKLGFTQGDVGFAMGKLYGNDFSQTTISRFEALNLSFKNMCKLKPLLEKWLNDAE,0.01 ± 0.038
17,LEELEQFAKTFKQRRIKLGFTQGDVGHAMGKLYGNDFSQTTISRFEALNLSFKNMCKLKPLLEKWLNDAE,0.049 ± 0.034
18,LEELEQFAKTFKQRRIKLGFTQGDVGIAMGKLYGNDFSQTTISRFEALNLSFKNMCKLKPLLEKWLNDAE,-0.005 ± 0.035
19,LEELEQFAKTFKQRRIKLGFTQGDVGKAMGKLYGNDFSQTTISRFEALNLSFKNMCKLKPLLEKWLNDAE,-0.052 ± 0.054
20,LEELEQFAKTFKQRRIKLGFTQGDVGMAMGKLYGNDFSQTTISRFEALNLSFKNMCKLKPLLEKWLNDAE,0 ± 0.035
21,LEELEQFAKTFKQRRIKLGFTQGDVGNAMGKLYGNDFSQTTISRFEALNLSFKNMCKLKPLLEKWLNDAE,-0.13 ± 0.072
22,LEELEQFAKTFKQRRIKLGFTQGDVGPAMGKLYGNDFSQTTISRFEALNLSFKNMCKLKPLLEKWLNDAE,-0.31 ± 0.034
23,LEELEQFAKTFKQRRIKLGFTQGDVGQAMGKLYGNDFSQTTISRFEALNLSFKNMCKLKPLLEKWLNDAE,0.003 ± 0.029
24,LEELEQFAKTFKQRRIKLGFTQGDVGRAMGKLYGNDFSQTTISRFEALNLSFKNMCKLKPLLEKWLNDAE,0.016 ± 0.02
25,LEELEQFAKTFKQRRIKLGFTQGDVGTAMGKLYGNDFSQTTISRFEALNLSFKNMCKLKPLLEKWLNDAE,-0.053 ± 0.067
26,LEELEQFAKTFKQRRIKLGFTQGDVGVAMGKLYGNDFSQTTISRFEALNLSFKNMCKLKPLLEKWLNDAE,0.003 ± 0.026

row,Variant,abundance fitness
1,LEELEQFAKTFKQRRIKLGFTQGDVGWAMGKLYGNDFSQTTISRFEALNLSFKNMCKLKPLLEKWLNDAE,-0.106 ± 0.041
2,LEELEQFAKTFKQRRIKLGFTQGDVGYAMGKLYGNDFSQTTISRFEALNLSFKNMCKLKPLLEKWLNDAE,-0.113 ± 0.058
3,LEELEQFAKTFKQRRIKLGFTQGDVGLDMGKLYGNDFSQTTISRFEALNLSFKNMCKLKPLLEKWLNDAE,-0.079 ± 0.11
4,LEELEQFAKTFKQRRIKLGFTQGDVGLEMGKLYGNDFSQTTISRFEALNLSFKNMCKLKPLLEKWLNDAE,-0.508 ± 0.43
5,LEELEQFAKTFKQRRIKLGFTQGDVGLFMGKLYGNDFSQTTISRFEALNLSFKNMCKLKPLLEKWLNDAE,-0.11 ± 0.021
6,LEELEQFAKTFKQRRIKLGFTQGDVGLHMGKLYGNDFSQTTISRFEALNLSFKNMCKLKPLLEKWLNDAE,-0.059 ± 0.04
7,LEELEQFAKTFKQRRIKLGFTQGDVGLIMGKLYGNDFSQTTISRFEALNLSFKNMCKLKPLLEKWLNDAE,-0.054 ± 0.024
8,LEELEQFAKTFKQRRIKLGFTQGDVGLKMGKLYGNDFSQTTISRFEALNLSFKNMCKLKPLLEKWLNDAE,-0.008 ± 0.033
9,LEELEQFAKTFKQRRIKLGFTQGDVGLLMGKLYGNDFSQTTISRFEALNLSFKNMCKLKPLLEKWLNDAE,-0.04 ± 0.022
10,LEELEQFAKTFKQRRIKLGFTQGDVGLMMGKLYGNDFSQTTISRFEALNLSFKNMCKLKPLLEKWLNDAE,-0.043 ± 0.024
11,LEELEQFAKTFKQRRIKLGFTQGDVGLNMGKLYGNDFSQTTISRFEALNLSFKNMCKLKPLLEKWLNDAE,-0.061 ± 0.03
12,LEELEQFAKTFKQRRIKLGFTQGDVGLPMGKLYGNDFSQTTISRFEALNLSFKNMCKLKPLLEKWLNDAE,-0.56 ± 0.041
13,LEELEQFAKTFKQRRIKLGFTQGDVGLQMGKLYGNDFSQTTISRFEALNLSFKNMCKLKPLLEKWLNDAE,0.048 ± 0.05
14,LEELEQFAKTFKQRRIKLGFTQGDVGLSMGKLYGNDFSQTTISRFEALNLSFKNMCKLKPLLEKWLNDAE,-0.042 ± 0.02
15,LEELEQFAKTFKQRRIKLGFTQGDVGLTMGKLYGNDFSQTTISRFEALNLSFKNMCKLKPLLEKWLNDAE,-0.01 ± 0.024
16,LEELEQFAKTFKQRRIKLGFTQGDVGLVMGKLYGNDFSQTTISRFEALNLSFKNMCKLKPLLEKWLNDAE,-0.052 ± 0.11
17,LEELEQFAKTFKQRRIKLGFTQGDVGLAAGKLYGNDFSQTTISRFEALNLSFKNMCKLKPLLEKWLNDAE,-0.145 ± 0.022
18,LEELEQFAKTFKQRRIKLGFTQGDVGLACGKLYGNDFSQTTISRFEALNLSFKNMCKLKPLLEKWLNDAE,-0.092 ± 0.049
19,LEELEQFAKTFKQRRIKLGFTQGDVGLADGKLYGNDFSQTTISRFEALNLSFKNMCKLKPLLEKWLNDAE,-0.727 ± 0.07
20,LEELEQFAKTFKQRRIKLGFTQGDVGLAEGKLYGNDFSQTTISRFEALNLSFKNMCKLKPLLEKWLNDAE,-0.808 ± 0.085
21,LEELEQFAKTFKQRRIKLGFTQGDVGLAFGKLYGNDFSQTTISRFEALNLSFKNMCKLKPLLEKWLNDAE,-0.148 ± 0.027
22,LEELEQFAKTFKQRRIKLGFTQGDVGLAGGKLYGNDFSQTTISRFEALNLSFKNMCKLKPLLEKWLNDAE,-0.377 ± 0.041
23,LEELEQFAKTFKQRRIKLGFTQGDVGLAHGKLYGNDFSQTTISRFEALNLSFKNMCKLKPLLEKWLNDAE,-0.689 ± 0.059
24,LEELEQFAKTFKQRRIKLGFTQGDVGLAIGKLYGNDFSQTTISRFEALNLSFKNMCKLKPLLEKWLNDAE,-0.006 ± 0.042
25,LEELEQFAKTFKQRRIKLGFTQGDVGLAKGKLYGNDFSQTTISRFEALNLSFKNMCKLKPLLEKWLNDAE,-0.748 ± 0.081
